Data taken from patent US20220024975A1 (ARROWHEAD PHARMACEUTICALS, published 2022).
Several values for one entry are separate records, joined by “and”; a condition that tells them apart may be missing. Equal values may be shown once. Non-standard residues stand in square brackets, D forms with d. No end group written: not given here. *: point of attachment. MeO‑PEG8 = N-terminal cap, methoxy-PEG with 8 ethylene glycol units; guanidinyl = N-terminal guanidinyl cap, N=C(N)*; Pentanoyl(5-guanidino) = NC(N)=NCCCCC(=O)*; Cha = N[C@@H](CC1CCCCC1)C(=O)O; Cit = NC(=O)NCCC[C@H](N)C(=O)O; Agp = N=C(N)NC[C@H](N)C(=O)O; Abu = CC[C@H](N)C(=O)O; Aib = CC(C)(N)C(=O)O; Sar = CNCC(=O)O

Molecular target: T1, αvβ6 integrin (human, UniProt P06756 31-1048; P18564 22-788)
T1 construct: whole, on cells; target is the endogenous integrin on αvβ6 positive-control cell lines; also called Integrin alpha-v beta-6
T1 sequence (P06756 31-1048, chain 1 of 2): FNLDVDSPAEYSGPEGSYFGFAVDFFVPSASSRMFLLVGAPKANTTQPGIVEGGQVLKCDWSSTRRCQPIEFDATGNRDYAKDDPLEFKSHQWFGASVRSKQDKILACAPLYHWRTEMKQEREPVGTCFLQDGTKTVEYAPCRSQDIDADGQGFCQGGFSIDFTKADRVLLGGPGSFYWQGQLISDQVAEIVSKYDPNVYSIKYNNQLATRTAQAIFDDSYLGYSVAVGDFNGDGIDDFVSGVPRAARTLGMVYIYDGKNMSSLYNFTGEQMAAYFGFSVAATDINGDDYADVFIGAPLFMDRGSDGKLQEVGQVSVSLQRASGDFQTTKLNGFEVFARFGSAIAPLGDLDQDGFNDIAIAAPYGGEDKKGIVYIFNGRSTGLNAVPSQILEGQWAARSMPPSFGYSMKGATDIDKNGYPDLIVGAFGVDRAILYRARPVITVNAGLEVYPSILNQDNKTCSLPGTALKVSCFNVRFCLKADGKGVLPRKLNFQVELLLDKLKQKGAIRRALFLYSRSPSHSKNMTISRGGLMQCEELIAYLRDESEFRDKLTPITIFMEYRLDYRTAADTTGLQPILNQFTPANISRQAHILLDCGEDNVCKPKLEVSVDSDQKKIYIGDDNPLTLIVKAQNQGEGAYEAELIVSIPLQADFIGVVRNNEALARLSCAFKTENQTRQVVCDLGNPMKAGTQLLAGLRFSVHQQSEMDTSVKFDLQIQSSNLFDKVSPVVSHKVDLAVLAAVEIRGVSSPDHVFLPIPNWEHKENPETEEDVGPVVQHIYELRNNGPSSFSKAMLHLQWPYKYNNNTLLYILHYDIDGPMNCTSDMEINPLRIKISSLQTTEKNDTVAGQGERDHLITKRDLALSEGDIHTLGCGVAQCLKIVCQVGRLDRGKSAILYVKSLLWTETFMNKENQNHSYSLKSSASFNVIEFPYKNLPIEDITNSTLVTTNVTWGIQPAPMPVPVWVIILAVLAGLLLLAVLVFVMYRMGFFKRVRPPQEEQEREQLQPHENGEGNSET
T1 sequence (P18564 22-788, chain 2 of 2): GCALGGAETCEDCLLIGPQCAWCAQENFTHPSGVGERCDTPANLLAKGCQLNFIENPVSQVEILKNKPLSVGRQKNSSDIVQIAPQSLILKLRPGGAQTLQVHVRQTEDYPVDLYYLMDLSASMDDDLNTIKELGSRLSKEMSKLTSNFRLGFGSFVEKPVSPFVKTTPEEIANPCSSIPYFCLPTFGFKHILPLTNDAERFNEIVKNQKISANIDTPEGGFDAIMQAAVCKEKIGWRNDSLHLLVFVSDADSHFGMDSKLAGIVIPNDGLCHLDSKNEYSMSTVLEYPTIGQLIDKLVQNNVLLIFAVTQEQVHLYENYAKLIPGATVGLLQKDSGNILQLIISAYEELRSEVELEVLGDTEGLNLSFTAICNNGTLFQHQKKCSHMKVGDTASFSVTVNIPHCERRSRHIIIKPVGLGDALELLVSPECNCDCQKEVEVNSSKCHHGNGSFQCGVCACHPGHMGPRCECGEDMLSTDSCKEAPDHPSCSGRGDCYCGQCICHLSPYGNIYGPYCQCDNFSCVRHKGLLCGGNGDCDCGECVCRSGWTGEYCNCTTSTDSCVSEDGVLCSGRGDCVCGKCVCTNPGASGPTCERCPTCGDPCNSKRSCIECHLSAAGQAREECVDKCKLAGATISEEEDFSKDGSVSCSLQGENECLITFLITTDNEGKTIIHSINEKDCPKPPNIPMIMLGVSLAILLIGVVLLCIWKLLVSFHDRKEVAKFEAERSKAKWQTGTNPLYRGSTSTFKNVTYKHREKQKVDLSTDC
Experiment: flow cytometry, Cy5-polymer conjugate on H2009 / CAPAN-2 cells
From the text: B. αvβ6 ligand binding (flow cytometric analyses). To assess for specificity of binding of the αvβ6 ligands to the αvβ6 integrin, each αvβ6 ligand or negative control peptide was conjugated to a Cy5-labeled polymer (as described above) and evaluated for binding to cells. […] H2009 (human lung epithelial adenocarcinoma) and CAPAN-2 (human pancreas adenocarcinoma) cells served as the αvβ6 positive-control cell lines. Cells were detached from culturing flasks with Accutase, washed in PBS, and seeded into 5 ml polystyrene round-bottom tubes at 200,000 cells in 200 μl complete media (culturing media with supplements and fetal calf serum). αvβ6 ligand-polymer conjugates or no-ligand-polymer conjugates were added at 5 μg/ml (polymer-Cy5 concentration) to cells, mixed and incubated at 37° C. for 3 h. […] Samples were analyzed on a BD Biosciences Canto II cytometer equipped with a violet (405 nm), blue (488 nm) and red (633 nm) lasers.
Viable cells were initially gated as the SYTOX blue negative population on the C detector with the violet laser. These viable cells were then assessed for conjugate binding/uptake with the red laser as the Mean Fluorescence Intensity (MFI) of the Cy5 fluorophore. […] A specific MFI Ratio (sMFIr) for each αvβ6 ligand was determined by the formula: […]

Molecule | binding result
RGELATLRQL (not fully specified; printed as RGELATLRQL (RGE control), Negative control; Tested as ligand-(PEG)8-K-HyNic conjugated to Cy5-labelled 1170-100B polymer) [RGELATLRQL (RGE control)] | no binding (tested: 5 µg/ml (polymer-Cy5 concentration))

Molecular target: T1, αvβ6 integrin
Experiment: flow cytometry, Cy5-polymer conjugate 5 µg/ml, H2009 cells
From the text: B. αvβ6 ligand binding (flow cytometric analyses). To assess for specificity of binding of the αvβ6 ligands to the αvβ6 integrin, each αvβ6 ligand or negative control peptide was conjugated to a Cy5-labeled polymer (as described above) and evaluated for binding to cells. […] H2009 (human lung epithelial adenocarcinoma) and CAPAN-2 (human pancreas adenocarcinoma) cells served as the αvβ6 positive-control cell lines. Cells were detached from culturing flasks with Accutase, washed in PBS, and seeded into 5 ml polystyrene round-bottom tubes at 200,000 cells in 200 μl complete media (culturing media with supplements and fetal calf serum). αvβ6 ligand-polymer conjugates or no-ligand-polymer conjugates were added at 5 μg/ml (polymer-Cy5 concentration) to cells, mixed and incubated at 37° C. for 3 h. Incubation at 37° C. facilitated ligand/receptor interaction which may result in static binding to the extracellular cell surface and/or internalized ligand/receptor complexes. The mixture was re-suspended at 1 h intervals. Following a 3 h incubation, cells were washed 2× with 4 ml chilled buffer (PBS-2% FCS) and re-suspended in 200 μl buffer containing 10 μM SYTOX blue stain for live/dead cell gating. Samples were analyzed on a BD Biosciences Canto II cytometer equipped with a violet (405 nm), blue (488 nm) and red (633 nm) lasers.
Viable cells were initially gated as the SYTOX blue negative population on the C detector with the violet laser. These viable cells were then assessed for conjugate binding/uptake with the red laser as the Mean Fluorescence Intensity (MFI) of the Cy5 fluorophore. Data analyses were performed with FlowJo v10.1 software. A specific MFI Ratio (sMFIr) for each αvβ6 ligand was determined by the formula: […]

Molecule | MFI (specific MFI ratio, sample/no-ligand)
Ac-RGDLA[Abu]LE[Aib] | 1.9
Ac-RGDLA[Abu]L[Cit]F | 3.7
Ac-RGDLA[Abu]LRQL | 6.47
CH3O(CH2CH2O)1CH2CH2CO-RGDLAAbuLCitAib (peptide) | 3.8
Ac-RGDLA[Abu]L | 2.6
CH3(CH2)3-RGDLAAbuLCitAib (peptide) | 4.7
CH3(CH2)4CO-RGDLAAbuLCitAib (peptide) | 3.9
Ac-RGDLAFL[Cit][Aib] | 2
Ac-RGDLA[Abu]L[Cit][Aib] | 4.7 and 3.8
Ac-RGDL[Aib]TLRQL | 4
CH3O(CH2CH2O)2CH2CH2CO-RGDLAAbuLCitAib (peptide) | 3.6
Ac-RGDLA[Abu]L[Cit]E | 4
CH3O(CH2CH2O)3CH2CH2CO-RGDLAAbuLCitAib (peptide) | 3.7
Ac-RGDLA[Abu]L[Aib] | 3.2
Ac-RGDLA[Abu]L[Cit][Aib]L | 3.2 and 4.55 and 4.6
CH3(CH2)4-RGDLAAbuLCitAib (peptide) | 4.1
Ac-RGDLA[Abu]LQ[Aib] | 4.4
Ac-R[Sar]DLA[Abu]L[Cit][Aib] | 2.6
Ac-RGDLAEL[Cit][Aib] | 2.4
Ac-RGDLAKL[Cit][Aib] | 3.6
Ac-RGDLF[Abu]L[Cit][Aib] | 2.7

Molecule | MFI (specific MFI ratio, sample/no-ligand)
Ac-RGDLG[Abu]L[Cit][Aib] | 3.7
Ac-RGDLP[Abu]L[Cit][Aib] | 1
CH3(CH2)1CO-RGDLAAbuLCitAib (peptide) | 4.2
Ac-RGDLA[Abu]LF[Aib] | 3.6
Ac-RGDNMeLAAbuLCitAib (peptide) | 1
Ac-RGDLβ3-hAAbuLCitAib (peptide) | 2.34
Ac-RGDLA[Abu]LK[Aib] | 5.4
Ac-RGDLE[Abu]L[Cit][Aib] | 2.6
Ac-RGDL[Cha]TLRQL | 5.1
CH3O(CH2CH2O)5CH2CH2CO-RGDLAAbuLCitAib (peptide) | 1.6
Ac-RGDL[Cha][Abu]L[Cit][Aib] | 1.6
Ac-RGDLA[Abu]L[Cit]P | 4
RGDLATLRQ (not fully specified, Tested as ligand-(PEG)8-K-HyNic conjugated to Cy5-labelled 1170-100B polymer) | 4.7 ratio
[Pentanoyl(5-guanidino)]GDLATLRQL (not fully specified (C-terminus); printed as des-amino-RGDLATLRQL; also: HyNic conjugated to Cy5-labelled 1170-100B polymer) [des-amino-…] | 1.1
RGDLATLRQLEEEK(HyNic) (also: conjugated via HyNic to Cy5-labelled 1170-100B polymer, places HyNic at (1)..(1) as C-terminal, Conjugated to Cy5-labelled 1170-100B polymer; printed with its own K-(HyNic)) [RGDLATLRQLEEEK-(HyNic)] | 6.5 ratio
RGDLAT (not fully specified, Tested as ligand-(PEG)8-K-HyNic conjugated to Cy5-labelled 1170-100B polymer) | 1.3 ratio
RGDLATL (not fully specified, Tested as ligand-(PEG)8-K-HyNic conjugated to Cy5-labelled 1170-100B polymer; also called natural peptide) | 2.9 ratio
Ac-RGDLAILRQL (not fully specified; printed as Ac-RGDLAILRQL, Tested as ligand-(PEG)8-K-HyNic conjugated to Cy5-labelled 1170-100B polymer) [Ac-RGDLAILRQL] | 6.22 ratio
RGELATLRQL (not fully specified; printed as RGELATLRQL (RGE control), Negative control; Tested as ligand-(PEG)8-K-HyNic conjugated to Cy5-labelled 1170-100B polymer) [RGELATLRQL (RGE control)] | 0.99 ratio
{MeO‑PEG8}-RGDLATLRQL (not fully specified; printed as MeO-PEG8-RGDLATLRQL, Tested as ligand-(PEG)8-K-HyNic conjugated to Cy5-labelled 1170-100B polymer) [MeO-PEG8-RGDLATLRQL] | 2.5 ratio

Now from value to molecule:

MFI (specific MFI ratio, sample/no-ligand) | Molecule
4 | Ac-RGDLA[Abu]LG[Aib]
4.4 | CH3CH2-RGDLAAbuLCitAib (peptide)
4.5 | Ac-RGDLβ3-hATLRQL (peptide)
4.3 | CH3(CH2)2CO-RGDLAAbuLCitAib (peptide)
3.9 | CH3(CH2)2-RGDLAAbuLCitAib (peptide)
2.8 | Ac-RGDLAPL[Cit][Aib]
3.6 | Ac-RGDLAQL[Cit][Aib]
3.94 | Ac-RGDLATL[Cit]QL
0.99 | Ac-[Cit]GDLATL[Cit]QL
3.7 | Ac-RGDLQ[Abu]L[Cit][Aib]
3.8 | Ac-RGDLAGL[Cit][Aib]
0.9 and 1 | Ac-RGαMeDLAAbuLCitAib (peptide)
4.8 | Ac-RGDLA[Abu]L[Cit]G
3.6 | Ac-RGDLK[Abu]L[Cit][Aib]
3.3 | Ac-RGDLA[Abu]L[Cit]
5.2 | Ac-RGDLA[Abu]L[Cit]K
0.8 and 1 | Ac-RGDαMeLAAbuLCitAib (peptide)
4.4 | Ac-RGDLA[Abu]L[Cit]Q
4.1 | CH3(CH2)3CO-RGDLAAbuLCitAib (peptide)
4.6 | RGDLA[Abu]L[Cit][Aib]L
1.6 | Ac-RGDLA[Abu]LP[Aib]
1.3 | Ac-RGDLAAbuNMeLCitAib (peptide)
4.8 ratio | Me-RGDLATLRQL (not fully specified; printed as Me-RGDLATLRQL, Tested as ligand-(PEG)8-K-HyNic conjugated to Cy5-labelled 1170-100B polymer) [Me-RGDLATLRQL]
4.7 ratio | Ac-RGDLATLRQL (not fully specified; printed as Ac-RGDLATLRQL, Tested as ligand-(PEG)8-K-HyNic conjugated to Cy5-labelled 1170-100B polymer) [Ac-RGDLATLRQL]
4.3 ratio | guanidinyl-RGDLATLRQL (not fully specified; printed as Guanidinyl-RGDLATLRQL, Tested as ligand-(PEG)8-K-HyNic conjugated to Cy5-labelled 1170-100B polymer) [Guanidinyl-RGDLATLRQL]
6.23 ratio | Ac-RGDLAVLRQL (not fully specified; printed as Ac-RGDLAVLRQL, Tested as ligand-(PEG)8-K-HyNic conjugated to Cy5-labelled 1170-100B polymer) [Ac-RGDLAVLRQL]
6.06 ratio | Ac-RGDLALLRQL (not fully specified; printed as Ac-RGDLALLRQL, Tested as ligand-(PEG)8-K-HyNic conjugated to Cy5-labelled 1170-100B polymer) [Ac-RGDLALLRQL]
3.4 ratio | [Agp]GDLATLRQL (not fully specified; printed as Dap(guanidino)-GDLATLRQL, Tested as ligand-(PEG)8-K-HyNic conjugated to Cy5-labelled 1170-100B polymer) [Dap(guanidino)-GDLATLRQL]

Molecular target: T1, αvβ6 integrin
Experiment: flow cytometry, Cy5-polymer conjugate 5 µg/ml, CAPAN-2 cells

Molecule | MFI (specific MFI ratio, sample/no-ligand)
Ac-RGDLA[Abu]L | 7.9
Ac-RGDLA[Abu]L[Aib] | 8.9
Ac-RGDLA[Abu]L[Cit][Aib]L | 7.7

Other lines, results leading:

MFI (specific MFI ratio, sample/no-ligand) | Molecule
1 | Ac-RGαMeDLAAbuLCitAib (peptide)
0.9 | Ac-RGDαMeLAAbuLCitAib (peptide)
